Source: PMC7595577

Target: biotinylated CD16 (UniProt P08637)
Assay: BLI

B1: QA255.072 IgG (antibody, V domains shown)
VH: QVQLIQSGAEVRKPGSSVKVSCKAVGATFHNYAVSWVRQAPGQGLEWMGGIIPIRGLANQEPRFQGRLTITADESTGAIYMDLSSLRSDDSAVYYCARHYDDTSGFFYGAFDIWGQGTTLIVSS
VL: DIQMTQSPPSLSASVGDRVTISCRASQGIGNSVAWYQQKPGKAPKLLILAASSLRSGVPSRFSGSMSGTDFTLTISGLQPEDVATYYCQKYNSAPWTFGQGTKVEIK
Kd: 4.9 µM
